Tests used:
[1] = target: T1, recombinant human TNF-α (Product 210-TA-050, R&D) (human, UniProt P01375 77-233); test: cell-based or functional assay
[2] = target: T1, recombinant human TNF-α (Product …); test: SPR, Biacore T100, TNFα amine-coupled to CM5 chip, antibody in flow
Procedure: After each examination, they were washed with 5 μl of 50 mM hydrochloric acid aqueous solution at a flow rate of 3 μl/min so as to wash away the residual antibodies from the immobilized ligands. The binding curves were subjected to nonlinear regression analysis using BIAevalution software (T100 evalution version 2.0, Biacore).

[3] = target: T1, recombinant human TNF-α (Product …); test: flow cytometry competition: FITC-TNF-α (100 ng/ml) on U937 cells, antibody titrated; average of 3
Procedure: (§1) U937 cells (ATCC CRL1593) were cultured in RPMI-1640 medium (GIBCO) containing 10% fetal bovine serum (JRH). […] The cells at logarithmic growth phase were counted and then centrifuged at 200 g for 5 min. Supernatant was removed and cell pellets were resuspended in PBS containing 1% fetal bovine serum. The cells were adjusted to a concentration 1×10⁶/ml, and then distributed into flow cytometry test tubes, with 100 μl/tube. […] The diluted samples and control samples were added into flow cytometry test tubes, with 100 μl/tube, and reacted at 4° C. for 1 hour in darkness; the cells were washed twice with PBS containing 1% fetal bovine serum, and centrifuged at 200 g for 5 min each time. Supernatant was removed and cell pellets were resuspended in 300 μl of PBS containing 1% fetal bovine serum. Flow cytometry was used to measure the fluorescence intensity of each tube. Sample concentration was plotted on the x-coordinate and […] was plotted on the y-coordinate.

[4] = target: T1, recombinant human TNF-α (Product …); test: flow cytometry competition: FITC-TNF-α (100 ng/ml) on U937 cells, antibody titrated; experiment 1
Procedure: as §1

[5] = target: T1, recombinant human TNF-α (Product …); test: flow cytometry competition: FITC-TNF-α (100 ng/ml) on U937 cells, antibody titrated; experiment 2
Procedure: as §1

[6] = target: T1, recombinant human TNF-α (Product …); test: flow cytometry competition: FITC-TNF-α (100 ng/ml) on U937 cells, antibody titrated; experiment 3
Procedure: as §1

[7] = target: T1, recombinant human TNF-α (Product …); test: competition ELISA: biotin-TNF-α (10 ng/ml) on coated P75 receptor-Fc, antibody titrated; average of 3
Procedure: (§2) 10 μg/ml of P75 receptor-Fc fusion protein (which was prepared according to the method described in Chinese Patent Application No. 01132074.5 entitled “Recombinant genes, fusion genes and products of the soluble fragment of Tumor Necrosis Factor Receptor” filed on Oct. 31, 2001) was used to coat ELIAS plates and reacted at 37° C. for 2 h; 3% BSA-PBS was used to block the plate wells and reacted overnight at 4° C. […] The diluted samples and control samples were added to washed ELIAS plates with 100 μl/well and reacted at 37° C. for 1 h; the ELIAS plates were washed; HRP-avidin (Zymed) was diluted at 1:1000 with PBS and added to the ELIAS plates with 100 μl/well and reacted at 37° C. for 1 h; the ELIAS plates were washed; equal volumes of A solution and B solution (Jingmei BioTech Co. Ltd.) of TMB substrate for HRP were mixed and added to the ELIAS plates with 100 μl/well and reacted at room temperature for 10 minutes in darkness; each well was added with 100 μl of 0.5M sulphuric acid to stop the reaction. Absorbance at […] was measured using microplate reader. The concentration of samples was used as x-coordinate and absorbance was used as y-coordinate.

[8] = target: T1, recombinant human TNF-α (Product …); test: competition ELISA: biotin-TNF-α (10 ng/ml) on coated P75 receptor-Fc, antibody titrated; experiment 1
Procedure: as §2

[9] = target: T1, recombinant human TNF-α (Product …); test: competition ELISA: biotin-TNF-α (10 ng/ml) on coated P75 receptor-Fc, antibody titrated; experiment 2
Procedure: as §2

[10] = target: T1, recombinant human TNF-α (Product …); test: competition ELISA: biotin-TNF-α (10 ng/ml) on coated P75 receptor-Fc, antibody titrated; experiment 3
Procedure: as §2

T1 sequence (P01375 77-233 limits assumed): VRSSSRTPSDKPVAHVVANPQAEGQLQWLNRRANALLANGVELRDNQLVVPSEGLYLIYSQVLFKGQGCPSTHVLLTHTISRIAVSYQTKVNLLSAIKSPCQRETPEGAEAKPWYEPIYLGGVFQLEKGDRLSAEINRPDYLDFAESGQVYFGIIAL

Kd [2]: 0.36 nM
koff [2]: 5.7e-05 s⁻¹
kon [2]: 158000 M⁻¹ s⁻¹
IC50 [3]: 0.96 µg/mL
IC50 [4]: 0.89 µg/mL
IC50 [5]: 1.03 µg/mL
IC50 [6]: 0.97 µg/mL
IC50 [7]: 0.28 µg/mL
IC50 [8]: 0.25 µg/mL
IC50 [9]: 0.31 µg/mL
IC50 [10]: 0.27 µg/mL
B1: fully human anti-TNF-α monoclonal antibody 4H16 (antibody, human IgG1, kappa, V domains shown)
VH: QVTLRESGPALVKPTQTLTLTCTFSGFSLSTSGMCVSWIRQPPGKALEWLALIDWDDDKYYSTSLKTRLTISKDTSKNQVVLTMTNMDPVDTATYYCARILVDIVATITNDAFDVWGQGTMVTVSS
VL: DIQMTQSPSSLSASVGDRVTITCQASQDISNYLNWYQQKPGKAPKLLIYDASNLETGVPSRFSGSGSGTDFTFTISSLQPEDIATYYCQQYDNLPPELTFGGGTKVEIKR
notes: The genes carried a signal peptide at the 5' end; also called fully human antibody 4H16
IC50 of resistance to TNF-α-mediated killing of L929 cells (MTS), average [1]: 57.2 ng/mL
IC50 of resistance to TNF-α-mediated killing of L929 cells (MTS), experiment 1 [1]: 59.2 ng/mL
IC50 of resistance to TNF-α-mediated killing of L929 cells (MTS), experiment 2 [1]: 45.9 ng/mL
IC50 of resistance to TNF-α-mediated killing of L929 cells (MTS), experiment 3 [1]: 66.4 ng/mL

From patent publication US20120308575A1 (SHANGHAI BIOMABS PHARMACEUTICALS, published 2012)
